The values that follow come from patent US20250180582A1 (XIAMEN INNOBIOMAX BIOTECHNOLOGY, published 2025).

Holding throughout (assay): indirect ELISA, cell supernatant, antigen coated 200 ng/mL
Background: In an ELISA, binding on a coated surface is turned into a signal by an enzyme label.

Assay [1] deals with T1, pCold-TF-GPR37-1-613 full-length antigen (human, UniProt O15354 27-613).
T1 construct: Target fragment of Antigen 1 moved into the pCold-TF expression vector; also called Antigen 2; not shown: TF fusion partner encoded by the pCold-TF vector
T1 sequence: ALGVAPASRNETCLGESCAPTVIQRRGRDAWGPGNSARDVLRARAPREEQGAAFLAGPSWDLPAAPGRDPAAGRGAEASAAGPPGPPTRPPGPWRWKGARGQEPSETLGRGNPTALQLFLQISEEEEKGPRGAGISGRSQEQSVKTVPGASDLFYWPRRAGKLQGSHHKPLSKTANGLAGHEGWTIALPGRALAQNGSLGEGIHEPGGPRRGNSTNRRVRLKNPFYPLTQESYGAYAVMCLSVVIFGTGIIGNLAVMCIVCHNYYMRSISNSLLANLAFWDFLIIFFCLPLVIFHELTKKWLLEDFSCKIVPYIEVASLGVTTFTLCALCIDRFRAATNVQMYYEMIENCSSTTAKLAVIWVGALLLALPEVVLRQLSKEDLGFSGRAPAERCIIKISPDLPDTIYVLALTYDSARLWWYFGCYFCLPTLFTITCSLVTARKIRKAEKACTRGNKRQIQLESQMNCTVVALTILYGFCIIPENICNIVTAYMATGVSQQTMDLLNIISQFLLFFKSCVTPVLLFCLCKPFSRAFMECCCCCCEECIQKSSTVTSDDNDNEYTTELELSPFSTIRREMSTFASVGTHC
The method, then:
(§1) 3.6 Screening of hybridomas: Antigen 1 was used for primary screening, and two antigens that were also fused to pET-32a were used as accessory means for differential screening, in which both antigens were from Inbermax (Catalog No.: E11024, Catalog No.: E1212), and the self-made recombinant Antigen 2 and Antigen 3 were used at the same for identification. The screening method was an indirect ELISA, and its specific steps comprised: the plate was coated with the antigen at 200 ng/mL, 100 ul per well, added with 50 μL of cell supernatant, incubated at 37° C. for 30 minutes, washed 5 times with a plate washer, added with 100 ul of GAM-HRP prepared at 1:5K, incubated at 37° C. for 30 minutes, washed 5 times with a plate washer, added with a chromogenic solution at 100 ul/well, incubated at 37° C. for 15 minutes, added with a stop solution to terminated the reaction, and placed in a microplate reader to read signal values using dual wavelengths. Based on the experimental results, the cells in the corresponding positive wells were selected for the next step work.
(§2) 3.7 Cloning of hybridoma cells: Using the limiting dilution method, the cells were first diluted in gradient at certain concentrations, and then inoculated into each well of a 96-well cell culture plate, so that only one cell grew in the well as much as possible. The hybridoma monoclonal positive cell line was repeatedly cloned at least 3 times, and were confirmed as a stable clone after the final round was 100% positive. The positive standards were as described in 3.6.

Assay [2] has as its target T2, pCold-TF-GPR37-1-265 extracellular segment protein (human, UniProt O15354 27-265).
T2 construct: also called Antigen 3; not shown: TF fusion partner encoded by the pCold-TF vector
T2 sequence: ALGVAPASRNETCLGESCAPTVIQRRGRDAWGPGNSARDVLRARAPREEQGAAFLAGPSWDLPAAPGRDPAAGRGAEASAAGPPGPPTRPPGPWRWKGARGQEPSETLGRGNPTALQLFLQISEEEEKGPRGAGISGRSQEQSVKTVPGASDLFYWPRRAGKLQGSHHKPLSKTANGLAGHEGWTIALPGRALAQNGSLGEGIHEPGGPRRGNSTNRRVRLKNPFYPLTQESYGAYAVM
How it is done:
as §1, §2

In assay [3] the target is T3, antigen fused to pET-32a from Inbermax, Catalog No.: E11024.
T3 construct: Used for differential screening against the pET-32a fusion part
How it is done: as §1, §2

The target of assay [4] is T4, antigen fused to pET-32a from Inbermax, Catalog No.: E1212.
T4 construct: Used for differential screening against the pET-32a fusion part
The method, then:
as §1, §2

Assay [5] has as its target T5, pET-32a-GPR37-1-613 full-length antigen (human, UniProt O15354 27-613).
T5 construct: Expressed in Escherichia coli from pET-32a and purified; also called Antigen 1; not shown: fusion partner/tags encoded by the pET-32a vector
T5 sequence: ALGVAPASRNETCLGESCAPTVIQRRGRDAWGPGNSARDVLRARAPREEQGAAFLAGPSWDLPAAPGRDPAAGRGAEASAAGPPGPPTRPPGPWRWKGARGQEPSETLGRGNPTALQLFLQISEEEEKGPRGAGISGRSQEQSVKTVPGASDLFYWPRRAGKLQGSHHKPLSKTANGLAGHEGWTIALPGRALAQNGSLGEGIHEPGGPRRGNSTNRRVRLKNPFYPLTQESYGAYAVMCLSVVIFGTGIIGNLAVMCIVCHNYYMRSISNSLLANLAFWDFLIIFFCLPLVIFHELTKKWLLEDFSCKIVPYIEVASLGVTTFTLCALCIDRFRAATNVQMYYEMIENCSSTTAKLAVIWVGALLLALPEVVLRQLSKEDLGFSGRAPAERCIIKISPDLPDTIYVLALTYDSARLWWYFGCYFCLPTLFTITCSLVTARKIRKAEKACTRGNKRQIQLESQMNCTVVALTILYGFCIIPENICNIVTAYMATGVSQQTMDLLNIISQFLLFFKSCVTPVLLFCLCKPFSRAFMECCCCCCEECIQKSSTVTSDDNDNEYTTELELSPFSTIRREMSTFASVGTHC
How it is done: as §1, §2

B1: monoclonal antibody 5A2 (antibody, IgG2a, V domains shown)
VH: EVKLVESGGGLVQPGGSLRLSCATSGFIFSDYYMSWVRQPPGKALEWLGYIRNKAKRYTTEYNASVKGRFTISRDNSQNILYLQMNTLRAEDSATYYCARDTSDYDRFAYWGQGTLVTVSA
VL: DIVMTQTPLSLPVSLGDHASLSCKSSQSLVHRNGNTYLHWFLQKPGQSPKLLIYKVSNRFSGVPDRFSGSGSGTDFTLKISRVEAADLGVYFCSQSTLLPYTFGGGTKLEIK
notes: Mouse hybridoma antibody; also called mAb 5A2; 5A2-HRP
On to B1, for which the ELISA signal is 6.24 OD in assay [1]; 3.37 OD in assay [2]; 0.008 OD in assay [3]; 0.011 OD in assay [4]; 2.83 OD in assay [5].

B2: monoclonal antibody 6D2 (antibody, IgG2a, V domains shown)
VH: EVMLVESGGGLVKPGGSLKLSCAASGFIFSSQAMSWVRQIPEKRLEWVATISSGGSYTYYPDSVKGRFTISRDNAKNTLYLQMSSLTSEDTAMYYCARQRDFGRYYGYDPFFDFWGQGTTLTF
VL: EIVLTQSPTTMAASPGEKITITCSASSSISSNYLHWYQQKPGFSPKLLIYRTSNLPSGVPARFSGSGSGTSYSLTIGTMEAEDVATYYCQQGSSVPRITFGAGTKLE
notes: Mouse hybridoma antibody; also called mAb 6D2
For B2, the ELISA signal worked out at 2.81 OD in assay [1]; 3.54 OD in assay [2]; 0.009 OD in assay [3]; 0.01 OD in assay [4]; 3.37 OD in assay [5].
